Measurements reported in the Human Domainome abundance scans (Beltran et al. 2025).
± gives the uncertainty stated by the source.

B1: DnaJ homolog subfamily C member 5, residues 16 to 77; numbered along this chain, Q9H3Z4 (parent)
chain: LYHVLGLDKNATSDDIKKSYRKLALKYHPDKNPDNPEAADKFKEINNAHAILTDATKRNIYD

Variants of: B1
Test: abundance fitness (aPCA) (normalised: wild type 0, dead -1); higher = more abundant; growth selection in yeast, the domain comes from the species named
Details: Homo sapiens

Variant	abundance fitness
A48D	-0.16 ± 0.27
A48V	-0.777 ± 0.099
A48E	-0.387 ± 0.12
A48F	-1.72 ± 0.41
A48T	-0.777 ± 0.16
A48W	-1.58 ± 0.21
A48C	-0.85 ± 0.16
A48N	-0.903 ± 0.14
A39S	-0.176 ± 0.086
A39I	0.064 ± 0.16
A39L	0.014 ± 0.083
A39G	-0.032 ± 0.062
A39F	-0.56 ± 0.2
A39M	-0.126 ± 0.14
A39C	0.01 ± 0.11
P29T	-0.292 ± 0.069
P29S	-0.159 ± 0.065
P29Q	-0.377 ± 0.072
P29R	-0.422 ± 0.055
P29N	-0.278 ± 0.067
P29F	-0.542 ± 0.11
D62W	-0.546 ± 0.27
D62S	-0.421 ± 0.13
D62N	-0.465 ± 0.12

Variant	abundance fitness
D62G	-0.16 ± 0.083
D62K	-0.661 ± 0.27
D62L	-0.472 ± 0.28
D62P	-0.349 ± 0.17
D62Y	-0.849 ± 0.29
D62T	-0.894 ± 0.49
L7I	-0.477 ± 0.18
L7Q	-0.309 ± 0.092
L7K	-0.365 ± 0.092
L7D	-0.316 ± 0.14
L7C	-0.149 ± 0.1
K18P	-0.623 ± 0.086
K18Q	-0.104 ± 0.11
K18V	-0.098 ± 0.069
K18A	0.079 ± 0.1
K18S	0.04 ± 0.07
K18F	0.117 ± 0.21
K18D	-0.062 ± 0.19
K18L	-0.157 ± 0.067
A11E	-1.13 ± 0.25
A11I	-1.49 ± 0.32
A11V	-0.661 ± 0.11
A11K	-0.569 ± 0.16
K41Q	-0.333 ± 0.12

Variant	abundance fitness
K41D	-0.493 ± 0.14
K41N	-0.434 ± 0.2
K41V	-0.278 ± 0.063
K41A	-0.222 ± 0.064
K41G	-0.433 ± 0.064
V4F	-0.362 ± 0.15
V4I	-0.054 ± 0.074
V4G	-0.599 ± 0.054
V4E	-0.374 ± 0.11
V4K	-0.646 ± 0.096
V4Y	-0.553 ± 0.12
V4S	-0.259 ± 0.07
V4T	-0.209 ± 0.084
V4D	-0.458 ± 0.13
V4N	-0.15 ± 0.088
I51W	-0.712 ± 0.14
I51N	-0.304 ± 0.13
I51Y	-0.353 ± 0.25
I51D	0.123 ± 0.2
I51C	-0.142 ± 0.1
I51F	-0.326 ± 0.23
D8F	-0.533 ± 0.11
D8Q	-0.019 ± 0.12
D8K	-0.516 ± 0.13

Variant	abundance fitness
D8Y	-0.421 ± 0.1
D8V	-0.648 ± 0.077
D8R	-0.44 ± 0.066
D8S	-0.378 ± 0.063
D8T	-0.309 ± 0.088
D8G	-0.459 ± 0.075
L23K	-0.247 ± 0.11
L23V	-0.525 ± 0.076
L23S	-0.423 ± 0.11
L23F	-0.536 ± 0.17
L23H	-1.2 ± 0.41
L23D	-0.129 ± 0.15
D54E	-0.278 ± 0.11
D54Q	-0.666 ± 0.22
D54W	-0.907 ± 0.21
D54Y	-1.01 ± 0.22
D54A	-0.214 ± 0.14
D54G	-0.304 ± 0.088
D54C	-0.499 ± 0.2
D54V	-0.613 ± 0.11
D40P	-0.258 ± 0.11
D40F	0.029 ± 0.18
D40L	0.212 ± 0.085
D40V	0.194 ± 0.082

Variant	abundance fitness
D34L	-0.641 ± 0.07
D34W	-0.944 ± 0.12
D34K	-0.006 ± 0.1
D34I	-0.586 ± 0.17
I45A	-0.181 ± 0.076
I45Q	-0.45 ± 0.091
I45C	-0.44 ± 0.11
I45V	0.007 ± 0.065
I45H	-0.792 ± 0.15
I45T	-0.216 ± 0.086
I45G	-0.253 ± 0.063
I45E	-0.203 ± 0.083
L25D	0.17 ± 0.089
L25P	-0.21 ± 0.095
L25K	-0.159 ± 0.22
L25E	0.321 ± 0.11
L52H	-0.767 ± 0.26
N32R	-0.431 ± 0.076
N32M	-0.157 ± 0.094
N32G	-0.434 ± 0.11
I16K	-0.45 ± 0.098
I16W	-0.998 ± 0.094
I16N	-0.615 ± 0.18
I16F	-0.064 ± 0.18

Variant	abundance fitness
I16Y	-0.649 ± 0.14
I16S	-0.435 ± 0.08
K9M	-0.458 ± 0.087
K9P	-0.252 ± 0.096
K9R	-0.116 ± 0.065
K9W	-0.499 ± 0.094
K9T	-0.27 ± 0.091
H3Q	-0.116 ± 0.098
H3R	-0.185 ± 0.082
H3N	-0.27 ± 0.16
H3P	-0.602 ± 0.093
H3C	-0.148 ± 0.22
H3Y	-0.489 ± 0.17
H28R	-0.194 ± 0.17
H28Q	0.34 ± 0.34
H28E	0.179 ± 0.29
H28G	-0.037 ± 0.12
H28L	-0.536 ± 0.16
H28V	-0.459 ± 0.17
H28S	0.219 ± 0.15
H28W	-0.474 ± 0.35
H28D	0.062 ± 0.16
H28K	0.134 ± 0.2
E44D	-0.154 ± 0.1

Variant	abundance fitness
E44C	-0.524 ± 0.12
E44I	-0.73 ± 0.19
T12G	-0.472 ± 0.072
T12I	-0.412 ± 0.11
T12A	-0.878 ± 0.12
T12E	-0.573 ± 0.12
K22F	-0.16 ± 0.17
K22L	0.039 ± 0.082
K22Q	0.217 ± 0.11
K22G	0.045 ± 0.078
K22I	-0.179 ± 0.18
A24T	0.002 ± 0.064
A24F	0.213 ± 0.1
A24M	-0.028 ± 0.12
A24W	0.245 ± 0.084
A24D	-0.552 ± 0.15
A24R	-0.041 ± 0.059
A24I	0.086 ± 0.096
A24E	0.028 ± 0.099
A24P	-0.449 ± 0.1
Y61I	-0.129 ± 0.11
Y61V	0.002 ± 0.083
Y61Q	0.104 ± 0.14
Y61H	0.054 ± 0.21

Variant	abundance fitness
Y61F	-0.273 ± 0.12
F42P	-0.41 ± 0.099
F42L	0.202 ± 0.061
F42C	-0.243 ± 0.11
F42V	-0.197 ± 0.065
F42A	-0.28 ± 0.076
Y27I	-0.715 ± 0.22
Y27D	-0.316 ± 0.12
Y27M	-0.196 ± 0.12
Y27T	-0.157 ± 0.16
Y27E	-0.07 ± 0.091
Y20R	-0.148 ± 0.055
Y20T	-0.236 ± 0.072
Y20E	0.2 ± 0.071
Y20F	0.191 ± 0.12
Y20D	-0.053 ± 0.12
Y20G	-0.189 ± 0.071
I60C	0.109 ± 0.1
D30Y	-0.288 ± 0.15
D30W	-0.749 ± 0.087
D30P	-0.384 ± 0.1
D30E	0.01 ± 0.084
D30T	0.067 ± 0.14
N59C	0.032 ± 0.11

Variant	abundance fitness
N59W	-0.396 ± 0.087
H49Y	-0.251 ± 0.13
H49F	0.149 ± 0.085
H49I	-0.639 ± 0.13
H49M	-0.002 ± 0.11
H49G	-0.052 ± 0.066
H49W	-0.153 ± 0.095
H49L	-0.291 ± 0.065
H49K	-0.032 ± 0.096
A50I	-0.334 ± 0.13
A50H	-0.237 ± 0.14
A50G	-0.198 ± 0.071
A50C	-0.688 ± 0.21
A50E	-0.562 ± 0.12
A50P	-0.773 ± 0.1
K57Q	-0.1 ± 0.12
K57I	-0.511 ± 0.13
K57A	-0.079 ± 0.093
K57G	-0.373 ± 0.079
K57T	-0.415 ± 0.13
K17H	0.057 ± 0.13
K17V	0.039 ± 0.079
K17I	-0.107 ± 0.17
K17M	-0.09 ± 0.09

Variant	abundance fitness
A55M	-0.258 ± 0.12
A55V	-0.14 ± 0.1
A55S	-0.135 ± 0.093
A55Y	-0.423 ± 0.27
A55F	-0.334 ± 0.17
N46A	0.272 ± 0.12
N46I	-0.178 ± 0.16
N46L	-0.169 ± 0.097
N46G	-0.082 ± 0.084
N46M	-0.113 ± 0.1
A38E	-0.193 ± 0.14
A38C	-0.401 ± 0.16
A38I	-0.043 ± 0.12
A38R	-0.279 ± 0.063
A38T	-0.292 ± 0.11
A38N	-0.296 ± 0.17
N35E	-0.235 ± 0.094
N35A	-0.184 ± 0.082
N35H	-0.197 ± 0.094
N35C	-0.462 ± 0.19
N35I	-0.255 ± 0.14
N35Q	-0.265 ± 0.1
N35V	-0.255 ± 0.061
L5N	0.123 ± 0.3

Variant	abundance fitness
L5G	-0.713 ± 0.13
K26V	-0.13 ± 0.06
K26F	-0.385 ± 0.13
K26A	-0.081 ± 0.065
K26W	-0.477 ± 0.094
K26P	-0.264 ± 0.13
K26N	-0.358 ± 0.11
K26R	-0.214 ± 0.084
L1K	-0.269 ± 0.19
L1C	-0.284 ± 0.43
L1I	-0.084 ± 0.21
L1R	-0.741 ± 0.2
L1F	0.197 ± 0.16
D14Y	-0.431 ± 0.16
D14K	-0.209 ± 0.12
D14I	-0.105 ± 0.14
D14Q	-0.394 ± 0.1
D14E	-0.048 ± 0.099
D14L	-0.238 ± 0.073
R58Y	-0.575 ± 0.23
R58V	-0.363 ± 0.083
R58A	-0.044 ± 0.087
R58Q	-0.161 ± 0.16
R58H	-0.275 ± 0.16

Variant	abundance fitness
R58P	-0.119 ± 0.096
R58W	-0.636 ± 0.08
K43M	0.382 ± 0.25
K43G	-0.116 ± 0.11
K43A	0.299 ± 0.17
K43N	-0.23 ± 0.3
K43S	-0.043 ± 0.19
K43P	-1.02 ± 0.34
K43T	0.051 ± 0.2
Y2N	-0.011 ± 0.17
Y2I	-0.809 ± 0.19
Y2G	-0.28 ± 0.11
Y2Q	-0.358 ± 0.15
Y2D	-0.18 ± 0.17
Y2R	-0.922 ± 0.12
Y2W	-0.534 ± 0.11
P33A	-0.032 ± 0.09
P33Q	-0.063 ± 0.11
P33G	0.111 ± 0.052
P33N	-0.365 ± 0.22
P33M	-0.489 ± 0.1
P33L	-0.507 ± 0.075
P33R	0.064 ± 0.053
P33H	-0.798 ± 0.28

Variant	abundance fitness
P33Y	-0.34 ± 0.09
E37C	-0.206 ± 0.074
E37Y	-0.226 ± 0.11
E37G	-0.063 ± 0.059
E37H	0.004 ± 0.18
N10H	-0.493 ± 0.28
N10R	-0.464 ± 0.068
N10Y	-0.796 ± 0.22
N10V	-0.711 ± 0.069
D15K	-0.17 ± 0.099
D15G	-0.433 ± 0.098
D15M	-0.359 ± 0.14
D15H	-0.679 ± 0.25
N47S	-0.259 ± 0.49
N47R	-0.142 ± 0.28
T53D	-0.093 ± 0.13
T53R	-0.127 ± 0.057
T53E	-0.277 ± 0.076
T53F	-0.491 ± 0.13
T53N	0.101 ± 0.15
T53S	-0.116 ± 0.074
K31S	-0.51 ± 0.089
K31W	-0.626 ± 0.11
K31N	-0.452 ± 0.18

Variant	abundance fitness
K31T	-0.139 ± 0.11
K31Y	-0.207 ± 0.15
K31P	-0.379 ± 0.16
T56P	-0.516 ± 0.11
T56S	-0.15 ± 0.092
T56R	-0.246 ± 0.066
T56G	-0.09 ± 0.065
T56D	-0.095 ± 0.2
G6W	-1.02 ± 0.14
G6C	-0.466 ± 0.13
G6N	0.069 ± 0.47
G6E	-0.866 ± 0.17
G6F	-0.985 ± 0.17
S13N	0.002 ± 0.23
S13P	-0.272 ± 0.089
S13T	0.055 ± 0.12
S13I	0.046 ± 0.18
S13R	-0.354 ± 0.072
S13M	0.04 ± 0.12
S19E	-0.091 ± 0.088
S19W	-0.813 ± 0.075
S19Q	0.042 ± 0.12
